Experimental data as given in US9766250B2, “Method for detecting protein-protein interaction” (MEDICAL & BIOLOGICAL LABORATORIES CO., LTD., priority 2011, dated 2017).
Substitutions are numbered along the chain they refer to.

B1: monomeric Kikume Green-Red1 (protein)
chain: MVSVITSEMKIELRMEGSVNGHKFVITGKGSGRPYEGTQTVDLTVIEGGPLPFAFDILTTAFHYGNRVFVEYPEEIVDYFKQSFPEGYSWERSMSYEDGGICLATNNITMKKDGSNTFVNEIRFDGTNFPANGPVMQRKTVKWEPSTEKMYVRDGVLKGDVEMALLLEGGGHYRCDFRTTYKAKKVVQLPDYHYVDHQMEITSHDKDYNKVKAYEHAKAYSGTYRGAKYEFEA
modifications: Synthetic sequence mKikGR1
B2: DsRed2: fluorescent protein capable of homotetramerization, SEQ ID NO: 153 (protein)
chain: MASSENVITEFMRFKVRMEGTVNGHEFEIEGEGEGRPYEGHNTVKLKVTKGGPLPFAWDILSPQFQYGSKVYVKHPADIPDYKKLSFPEGFKWERVMNFEDGGVATVTQDSSLQDGCFIYKVKFIGVNFPSDGPVMQKKTMGWEASTERLYPRDGVLKGETHKALKLKDGGHYLVEFKSIYMAKKPVQLPGYYYVDAKLDITSHNEDYTIVEQYERTEGRHHLFL
modifications: Synthetic sequence DsRed2
B3: COR3.01: fluorescent protein capable of homotetramerization, SEQ ID NO: 151 (protein)
chain: MALSKHGLTKNMTTKYRMEGCVDGHKFVITGDGIGDPFEGKQTSIDLCVVEGGPLPFSEDILSTVFDYGNRVFTKYPQDLVDYFKNSCPAGYTWQRSFLFEDGAVCTASADIRVSVEENCFYHESKFHGVNFPADGPVMKKMTTNWEPSCEKITPILNEGILKGDVTMFLLLKDGGRYRCQFDTVYKAKADAKKMPEWHFIQHELTREDRSDAKHQKWRLVENAIAYRSTLP
modifications: Synthetic sequence COR3.01
B4: COR5: fluorescent protein capable of homotetramerization, SEQ ID NO: 172 (protein)
chain: B3 chain with K194D, W198M, N223S, L231P
modifications: Synthetic sequence COR5

Key:
[1] = biological target: T1, mTOR(FRB) and FKBP12 interaction (Homo sapiens, UniProt P42345+P62942); assay: Degree of fluorescent focus (assembly) formation after rapamycin, fluorescent proteins fused to mTOR(FRB) (Example 8, Table 1); type: cell-based; settings: fluorescent protein fused to mTOR(FRB); for degree of fluorescent focus formation, DGKd (SAM): with FKBP12-DGKd(SAM); for degree of fluorescent focus formation, TEL (SAM): with FKBP12-TEL(SAM); for degree of fluorescent focus formation, Tankyrase (SAM): with FKBP12-Tankyrase(SAM), some combinations in 293T cells; for degree of fluorescent focus formation, P62 (PB1): with p62(PB1)-FKBP12
T1 construct: region having the 2025th to 2114th amino acids of the mTOR protein; expressed in transfected cells; host or cells: HeLaS3; 293T for some combinations with FKBP12-Tankyrase(SAM)
T1 sequence (P42345 2025-2114): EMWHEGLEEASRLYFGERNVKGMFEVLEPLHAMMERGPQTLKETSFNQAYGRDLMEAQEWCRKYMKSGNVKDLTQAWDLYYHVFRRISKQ
T1 sequence (P62942 whole entry, the tested form may be a part): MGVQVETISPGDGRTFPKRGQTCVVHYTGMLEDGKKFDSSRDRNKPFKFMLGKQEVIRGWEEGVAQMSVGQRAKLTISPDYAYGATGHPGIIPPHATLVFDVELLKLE
Protocol: Note that plasmid DNAs encoding fusion proteins composed of mTOR(FRB) and the corresponding fluorescent proteins were prepared as appropriate by the same method as that described in Example 2. Moreover, regarding the combinations of FKBP12-Tankyrase(SAM) with mKO2, mKeima, mMiCy1, mKO1, MiCy1, and TGuv, the test was conducted by introducing the genes into 293T cells. Specifically, the 293T cells were cultured in DMEM High glucose (manufactured by SIGMA ALDRICH CO.) containing 10% FBS (manufactured by Equitech-Bio Inc.). Moreover, the 293T cells were seeded onto an 8-well chamber (manufactured by Nunc A/S) 6 hours before the plasmid DNAs were introduced. Further, at the time of the transfection, 200 ng of the plasmid DNA encoding FKBP12-Tankyrase(SAM) and 200 ng of one of the plasmid DNAs encoding fusion proteins composed of the fluorescent proteins and mTOR(FRB) were diluted with 30 μl of OptiMEM (manufactured by Life Technologies Corporation), and 1.2 μl of TurboFect Transfection Reagent (manufactured by Thermo Fisher Scientific Inc.) was added thereto and stirred. Then, the resultant was further mixed with 300 μl of the culture solution, subsequently added to the 293T cells, and observed 48 hours later.

[2] = biological target: T1, mTOR(FRB) and FKBP12 interaction; assay: Degree of fluorescent focus (assembly) formation after rapamycin with TFG(PB1) (Example 9, Table 2); type: cell-based; settings: fluorescent protein fused to mTOR(FRB), KO1 and dAG (AB) in 293T cells

| Molecule | degree of fluorescent focus formation, DGKd (SAM) [1] | degree of fluorescent focus formation, TEL (SAM) [1] | degree of fluorescent focus formation, Tankyrase (SAM) [1] | degree of fluorescent focus formation, P62 (PB1) [1] | degree of fluorescent focus formation, TFG (PB1) [2] |
| --- | --- | --- | --- | --- | --- |
| B1 | +++ (fluorescent foci were observed in 50% or more of the HeLaS3 cells) | +++ (fluorescent foci were observed in 50% or more of the HeLaS3 cells) | +++ (fluorescent foci were observed in 50% or more of the HeLaS3 cells) | +++ (fluorescent foci were observed in 50% or more of the HeLaS3 cells) | ++ (fluorescent foci were observed in 50% or less of the HeLaS3 cells) |
| B2 | +++ (fluorescent foci were observed in 50% or more of the HeLaS3 cells) | +++ (fluorescent foci were observed in 50% or more of the HeLaS3 cells) | +++ (fluorescent foci were observed in 50% or more of the HeLaS3 cells) | +++ (fluorescent foci were observed in 50% or more of the HeLaS3 cells) | ++ (fluorescent foci were observed in 50% or less of the HeLaS3 cells) |
| B3 | +++ (fluorescent foci were observed in 50% or more of the HeLaS3 cells) | +++ (fluorescent foci were observed in 50% or more of the HeLaS3 cells) | +++ (fluorescent foci were observed in 50% or more of the HeLaS3 cells) | +++ (fluorescent foci were observed in 50% or more of the HeLaS3 cells) | ++ (fluorescent foci were observed in 50% or less of the HeLaS3 cells) |
| B4 | +++ (fluorescent foci were observed in 50% or more of the HeLaS3 cells) | +++ (fluorescent foci were observed in 50% or more of the HeLaS3 cells) | +++ (fluorescent foci were observed in 50% or more of the HeLaS3 cells) | +++ (fluorescent foci were observed in 50% or more of the HeLaS3 cells) | ++ (fluorescent foci were observed in 50% or less of the HeLaS3 cells) |
